Experimental data taken from patent publication US20240327497A1.
Substitutions are numbered along the chain they refer to. Numbers in names are those of the source. Where “and” joins values, the source holds several entries; their conditions need not be identical. Equal entries are not always repeated.

Experiments:
[1] = molecular target: canine FcRn (FcRn large subunit with canine beta-2-microglobulin) (canine); assay: SPR pH 5.5, SASA-Fc captured on BSA, FcRn 200 nM
[2] = molecular target: canine FcRn (FcRn large subunit with canine beta-2-microglobulin) (canine); assay: SPR pH 5.5, SASA-Fc captured on BSA, FcRn 400 nM
[3] = molecular target: canine FcRn (FcRn large subunit with canine beta-2-microglobulin) (canine); assay: SPR pH 5.5, SASA-Fc captured on BSA, FcRn 200 nM; remark: listed apart in the source
[4] = molecular target: canine FcRn (FcRn large subunit with canine beta-2-microglobulin) (canine); assay: SPR pH 5.5, SASA-Fc captured on BSA, FcRn 100-800 nM
[5] = molecular target: canine FcRn (FcRn large subunit with canine beta-2-microglobulin) (canine); assay: SPR pH 5.5, SASA-Fc captured on BSA, FcRn 200 nM; remark: listed apart in the source
[6] = molecular target: canine FcRn (FcRn large subunit with canine beta-2-microglobulin) (canine); assay: SPR pH 5.5, SASA-Fc captured on BSA, FcRn 200 nM; remark: listed apart in the source
[7] = molecular target: canine FcRn (FcRn large subunit with canine beta-2-microglobulin) (canine); assay: SPR pH 5.5, SASA-Fc captured on BSA, FcRn 400 nM; average of 12 wild-type runs
[8] = molecular target: canine FcRn (FcRn large subunit with canine beta-2-microglobulin) (canine); assay: SPR pH 5.5, SASA-Fc captured on BSA, FcRn 200 nM; remark: listed apart in the source
[9] = molecular target: canine FcRn (FcRn large subunit with canine beta-2-microglobulin) (canine); assay: SPR pH 6.0, SASA-Fc captured on BSA, FcRn 200 nM
[10] = molecular target: canine FcRn (FcRn large subunit with canine beta-2-microglobulin) (canine); assay: SPR pH 5.5, SASA-Fc captured on BSA, FcRn 200 nM; remark: listed apart in the source
[11] = molecular target: canine FcRn (FcRn large subunit with canine beta-2-microglobulin) (canine); assay: SPR pH 6.0, SASA-Fc captured on BSA, FcRn 100-800 nM
[12] = molecular target: canine FcRn (FcRn large subunit with canine beta-2-microglobulin) (canine); assay: SPR pH 5.5, SASA-Fc captured on BSA, FcRn 200 nM; remark: listed apart in the source
[13] = molecular target: canine FcRn (FcRn large subunit with canine beta-2-microglobulin) (canine); assay: SPR pH 5.5, SASA-Fc captured on BSA, FcRn 200 nM; remark: listed apart in the source
[14] = molecular target: canine FcRn (FcRn large subunit with canine beta-2-microglobulin) (canine); assay: SPR pH 5.5, SASA-Fc captured on BSA, FcRn 200 nM; remark: listed apart in the source
[15] = molecular target: canine FcRn (FcRn large subunit with canine beta-2-microglobulin) (canine); assay: SPR pH 6.0, IgG coupled to CM5, FcRn 200-3200 nM
[16] = molecular target: canine FcRn (FcRn large subunit with canine beta-2-microglobulin) (canine); assay: SPR pH 5.9, IgG coupled to C1 chip, steady state fit

B1: canine IgGB Fc (CH2-CH3) E380A with N-terminal SASA tag (Fc fusion, part only; not given: SASA tag, not shown: another chain or arm of the molecule; small tags and cut ends)
Fc: APEMLGGPSVFIFPPKPKDTLLIARTPEVTCVVVDLDPEDPEVQISWFVDGKQMQTAKTQPREEQFNGTYRVVSVLPIGHQDWLKGKQFTCKVNNKALPSPIERTISKARGQAHQPSVYVLPPSREELSKNTVSLTCLIKDFFPPDIDVAWQSNGQQEPESKYRTTPPQLDEDGSYFLYSKLSVDKSRWQRGDTFICAVMHEALHNHYTQESLSHSPGK
- Kd [1]: 1320 nM and 1570 nM
- koff [1]: 0.223 s⁻¹ and 0.239 s⁻¹
- kon [1]: 168000 M⁻¹ s⁻¹ and 152000 M⁻¹ s⁻¹
- Kd [2]: 618 nM and 747 nM
- WT KD Avg/Variant KD [2]: 0.76 and 0.92
- koff [2]: 0.369 s⁻¹ and 0.18 s⁻¹
- kon [2]: 598000 M⁻¹ s⁻¹ and 241000 M⁻¹ s⁻¹

B2: canine IgGB Fc (CH2-CH3) N434Y with N-terminal SASA tag (Fc fusion, part only; not given: SASA tag, not shown: another chain or arm of the molecule; small tags and cut ends)
Fc: B1 Fc with A150E, N206Y
- Kd [3]: 15.9 nM
- koff [3]: 0.00968 s⁻¹
- kon [3]: 607000 M⁻¹ s⁻¹
- Kd [4]: 29.1 nM
- koff [4]: 0.0151 s⁻¹
- kon [4]: 520000 M⁻¹ s⁻¹

B3: canine IgGB Fc (CH2-CH3) A426F with N-terminal SASA tag (Fc fusion, part only; not given: SASA tag, not shown: another chain or arm of the molecule; small tags and cut ends)
Fc: B1 Fc with A150E, A198F
- Kd [5]: 182 nM and 181 nM
- koff [5]: 0.143 s⁻¹ and 0.147 s⁻¹
- kon [5]: 786000 M⁻¹ s⁻¹ and 811000 M⁻¹ s⁻¹
- Kd [4]: 522 nM
- koff [4]: 0.132 s⁻¹
- kon [4]: 253000 M⁻¹ s⁻¹

B4: canine IgGB Fc (CH2-CH3) N434R with N-terminal SASA tag (Fc fusion, part only; not given: SASA tag, not shown: another chain or arm of the molecule; small tags and cut ends)
Fc: B1 Fc with A150E, N206R
- Kd [3]: 107 nM and 159 nM
- koff [3]: 0.0524 s⁻¹ and 0.0633 s⁻¹
- kon [3]: 488000 M⁻¹ s⁻¹ and 399000 M⁻¹ s⁻¹
- Kd [4]: 182 nM
- koff [4]: 0.0801 s⁻¹
- kon [4]: 440000 M⁻¹ s⁻¹

B5: canine IgGB Fc (CH2-CH3) T250Q with N-terminal SASA tag (Fc fusion, part only; not given: SASA tag, not shown: another chain or arm of the molecule; small tags and cut ends)
Fc: B1 Fc with T20Q, A150E
- Kd [6]: 2590 nM and 2840 nM
- koff [6]: 0.258 s⁻¹ and 0.268 s⁻¹
- kon [6]: 99600 M⁻¹ s⁻¹ and 94300 M⁻¹ s⁻¹

B6: canine IgGB Fc (CH2-CH3) N434W with N-terminal SASA tag (Fc fusion, part only; not given: SASA tag, not shown: another chain or arm of the molecule; small tags and cut ends)
Fc: B1 Fc with A150E, N206W
- Kd [3]: 40.4 nM and 75.7 nM
- Kd [4]: 101 nM
- koff [4]: 0.045 s⁻¹
- kon [4]: 446000 M⁻¹ s⁻¹

B7: canine IgGB Fc (CH2-CH3) N434A with N-terminal SASA tag (Fc fusion, part only; not given: SASA tag, not shown: another chain or arm of the molecule; small tags and cut ends)
Fc: B1 Fc with A150E, N206A
- Kd [3]: 573 nM and 629 nM
- koff [3]: 0.156 s⁻¹ and 0.164 s⁻¹
- kon [3]: 272000 M⁻¹ s⁻¹ and 261000 M⁻¹ s⁻¹
- Kd [2]: 457 nM and 494 nM
- WT KD Avg/Variant KD [2]: 1.24 and 1.14
- koff [2]: 0.237 s⁻¹ and 0.477 s⁻¹
- kon [2]: 518000 M⁻¹ s⁻¹ and 966000 M⁻¹ s⁻¹

B8: wild-type canine IgGB Fc (CH2-CH3) with N-terminal SASA tag (Fc fusion, part only; not given: SASA tag, not shown: another chain or arm of the molecule; small tags and cut ends)
Fc: B1 Fc with A150E
- Kd [7]: 566 nM
- Kd [6]: 8990 nM and 3110 nM
- koff [6]: 0.347 s⁻¹ and 0.354 s⁻¹
- kon [6]: 38700 M⁻¹ s⁻¹ and 114000 M⁻¹ s⁻¹
- Kd [8]: 2050 nM and 2990 nM
- koff [8]: 0.31 s⁻¹ and 0.315 s⁻¹
- kon [8]: 151000 M⁻¹ s⁻¹ and 105000 M⁻¹ s⁻¹
- Kd [5]: 1010 nM and 673 nM
- koff [5]: 0.195 s⁻¹ and 0.297 s⁻¹
- kon [5]: 194000 M⁻¹ s⁻¹ and 442000 M⁻¹ s⁻¹
- Kd [9]: 939 nM and 999 nM
- koff [9]: 0.14 s⁻¹ and 0.144 s⁻¹
- kon [9]: 149000 M⁻¹ s⁻¹ and 144000 M⁻¹ s⁻¹
- Kd [1]: 1560 nM and 754 nM
- koff [1]: 0.179 s⁻¹ and 0.182 s⁻¹
- kon [1]: 115000 M⁻¹ s⁻¹ and 242000 M⁻¹ s⁻¹
- Kd [3]: 955 nM and 1310 nM
- koff [3]: 0.181 s⁻¹ and 0.209 s⁻¹
- kon [3]: 190000 M⁻¹ s⁻¹ and 159000 M⁻¹ s⁻¹
- Kd [10]: 1710 nM and 2660 nM
- koff [10]: 0.288 s⁻¹ and 0.326 s⁻¹
- kon [10]: 168000 M⁻¹ s⁻¹ and 123000 M⁻¹ s⁻¹
- Kd [11]: 1820 nM
- koff [11]: 0.417 s⁻¹
- kon [11]: 230000 M⁻¹ s⁻¹
- Kd [12]: 639 nM and 692 nM
- koff [12]: 0.17 s⁻¹ and 0.171 s⁻¹
- kon [12]: 267000 M⁻¹ s⁻¹ and 247000 M⁻¹ s⁻¹
- Kd [4]: 3150 nM
- koff [4]: 0.527 s⁻¹
- kon [4]: 168000 M⁻¹ s⁻¹
- Kd [13]: 502 nM and 784 nM
- koff [13]: 0.169 s⁻¹ and 0.207 s⁻¹
- kon [13]: 336000 M⁻¹ s⁻¹ and 264000 M⁻¹ s⁻¹
- Kd [14]: 884 nM and 862 nM
- koff [14]: 0.21 s⁻¹ and 0.218 s⁻¹
- kon [14]: 237000 M⁻¹ s⁻¹ and 253000 M⁻¹ s⁻¹

B9: canine IgGB Fc (CH2-CH3) L252Y with N-terminal SASA tag (Fc fusion, part only; not given: SASA tag, not shown: another chain or arm of the molecule; small tags and cut ends)
Fc: B1 Fc with L22Y, A150E
- Kd [10]: 98.7 nM and 114 nM
- koff [10]: 0.0397 s⁻¹ and 0.041 s⁻¹
- kon [10]: 402000 M⁻¹ s⁻¹ and 358000 M⁻¹ s⁻¹
- Kd [4]: 173 nM
- koff [4]: 0.0476 s⁻¹
- kon [4]: 275000 M⁻¹ s⁻¹

B10: anti-NGF canine IgGB antibody, Fc variant A426H + N434R (antibody, part only; not given: Anti-NGF variable domains, not shown: another chain or arm of the molecule; small tags and cut ends)
Fc: B1 Fc with A150E, A198H, N206R
- Kd [15]: 2480 nM
- koff [15]: 0.264 s⁻¹
- kon [15]: 107000 M⁻¹ s⁻¹

B11: canine IgGB Fc (CH2-CH3) L252M with N-terminal SASA tag (Fc fusion, part only; not given: SASA tag, not shown: another chain or arm of the molecule; small tags and cut ends)
Fc: B1 Fc with L22M, A150E
- Kd [10]: 869 nM and 774 nM
- koff [10]: 0.168 s⁻¹ and 0.169 s⁻¹
- kon [10]: 193000 M⁻¹ s⁻¹ and 218000 M⁻¹ s⁻¹

B12: canine IgGB Fc (CH2-CH3) D378V with N-terminal SASA tag (Fc fusion, part only; not given: SASA tag, not shown: another chain or arm of the molecule; small tags and cut ends)
Fc: B1 Fc with D148V, A150E
- Kd [13]: 693 nM and 873 nM
- koff [13]: 0.159 s⁻¹ and 0.16 s⁻¹
- kon [13]: 229000 M⁻¹ s⁻¹ and 184000 M⁻¹ s⁻¹

B13: canine IgGB Fc (CH2-CH3) D312P with N-terminal SASA tag (Fc fusion, part only; not given: SASA tag, not shown: another chain or arm of the molecule; small tags and cut ends)
Fc: B1 Fc with D82P, A150E
- Kd [5]: 291 nM and 439 nM
- koff [5]: 0.0894 s⁻¹ and 0.11 s⁻¹
- kon [5]: 307000 M⁻¹ s⁻¹ and 251000 M⁻¹ s⁻¹

B14: anti-NGF canine IgGB antibody with wild-type IgGB Fc (antibody, part only; not given: Anti-NGF variable domains, not shown: another chain or arm of the molecule; small tags and cut ends)
Fc: B1 Fc with A150E
- Kd [16]: 951 nM
- Kd [15]: 3370 nM
- koff [15]: 0.385 s⁻¹
- kon [15]: 114000 M⁻¹ s⁻¹

B15: canine IgGB Fc (CH2-CH3) Q311V with N-terminal SASA tag (Fc fusion, part only; not given: SASA tag, not shown: another chain or arm of the molecule; small tags and cut ends)
Fc: B1 Fc with Q81V, A150E
- Kd [12]: 372 nM and 439 nM
- koff [12]: 0.566 s⁻¹ and 0.696 s⁻¹
- kon [12]: 1.52e+06 M⁻¹ s⁻¹ and 1.59e+06 M⁻¹ s⁻¹

B16: canine IgGB Fc (CH2-CH3) A426Y with N-terminal SASA tag (Fc fusion, part only; not given: SASA tag, not shown: another chain or arm of the molecule; small tags and cut ends)
Fc: B1 Fc with A150E, A198Y
- Kd [5]: 146 nM and 143 nM
- koff [5]: 0.109 s⁻¹ and 0.112 s⁻¹
- kon [5]: 750000 M⁻¹ s⁻¹ and 785000 M⁻¹ s⁻¹
- Kd [4]: 389 nM
- koff [4]: 0.102 s⁻¹
- kon [4]: 262000 M⁻¹ s⁻¹

B17: canine IgGB Fc (CH2-CH3) A426H with N-terminal SASA tag (Fc fusion, part only; not given: SASA tag, not shown: another chain or arm of the molecule; small tags and cut ends)
Fc: B1 Fc with A150E, A198H
- Kd [5]: 160 nM and 153 nM
- koff [5]: 0.135 s⁻¹ and 0.14 s⁻¹
- kon [5]: 843000 M⁻¹ s⁻¹ and 915000 M⁻¹ s⁻¹
- Kd [4]: 343 nM
- koff [4]: 0.106 s⁻¹
- kon [4]: 308000 M⁻¹ s⁻¹

B18: canine IgGB Fc (CH2-CH3) A254T with N-terminal SASA tag (Fc fusion, part only; not given: SASA tag, not shown: another chain or arm of the molecule; small tags and cut ends)
Fc: B1 Fc with A24T, A150E
- Kd [8]: 2290 nM and 1340 nM
- koff [8]: 0.375 s⁻¹ and 0.433 s⁻¹
- kon [8]: 163000 M⁻¹ s⁻¹ and 323000 M⁻¹ s⁻¹

B19: canine IgGB Fc (CH2-CH3) T250E with N-terminal SASA tag (Fc fusion, part only; not given: SASA tag, not shown: another chain or arm of the molecule; small tags and cut ends)
Fc: B1 Fc with T20E, A150E
- Kd [6]: 2480 nM and 1660 nM
- koff [6]: 0.284 s⁻¹ and 0.287 s⁻¹
- kon [6]: 114000 M⁻¹ s⁻¹ and 172000 M⁻¹ s⁻¹
